Results reported in CN117990807A (BEIJING DONGFANG BIOTECH CO LTD; BEIJING JINGYI TAIXIANG …, dated 2024).

T1: 鼠TSLP-His (mouse, UniProt Q9JIE6 20-140)
T1 construct: Bought protein; also called TSLP(Mouse); not shown: His tag
T1 sequence (looked up): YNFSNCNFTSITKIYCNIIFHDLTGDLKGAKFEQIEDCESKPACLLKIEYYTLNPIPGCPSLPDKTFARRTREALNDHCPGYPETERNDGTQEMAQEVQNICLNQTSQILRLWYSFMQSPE


Assays:
猴TSLP-His (食蟹猴TSLP) = target: T2, 猴TSLP-His (食蟹猴TSLP) (cynomolgus monkey, UniProt A0A7N9CAT7 29-159); assay: ELISA, cynomolgus TSLP-His coated, goat anti-human IgG-HRP
T2 construct: Bought protein; also called TSLP(Cynomolgus); not shown: His tag

鼠TSLP-His = target: T1, 鼠TSLP-His; assay: ELISA, mouse TSLP-His coated
人TSLP-His [1] = target: T3, 人TSLP-His (human, UniProt Q969D9 29-159, limits assumed); assay: competition ELISA: CRLF2-Fc coated, TSLP-His 10μg/ml plus antibody dilutions, anti-His-HRP
T3 construct: also called TSLP(Human); not shown: His tag

[2] = target: T4, TSLP (人TSLP, thymic stromal lymphopoietin) (human, UniProt Q969D9 29-159, limits assumed); assay: ELISA, TSLP coated, goat anti-mouse IgG-HRP
T4 construct: also called TSLP抗原; 抗原TSLP

人TSLP-His [3] = target: T3, 人TSLP-His; assay: ELISA, TSLP-His coated, goat anti-human IgG-HRP

T2 sequence (A0A7N9CAT7 entry or part of it): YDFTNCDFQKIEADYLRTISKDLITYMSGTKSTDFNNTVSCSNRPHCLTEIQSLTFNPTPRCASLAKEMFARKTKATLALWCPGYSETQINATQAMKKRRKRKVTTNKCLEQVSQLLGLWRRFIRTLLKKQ

| Binder | EC50 (猴TSLP-His (食蟹猴TSLP)) | binding result (鼠TSLP-His) | IC50 (人TSLP-His [1]) | EC50 [2] | EC50 (人TSLP-His [3]) |
| --- | --- | --- | --- | --- | --- |
| 人源化抗TSLP单克隆抗体HA-Ⅱ (antibody, human IgG1, kappa, L234A L235A, V domains shown, Humanized from MA-Ⅰ) VH: QVQLVQSGAEVKKPGASVKVSCKASGYTFTSYWMHWVRQAPGQGLEWIGLIDPSDSDTTYNQKFKGRATLTVDTSTSTAYMELSSLRSEDTAVYYCSRSLDGYFDHWGQGTLVTVSS VL: DIVMTQSPSSLSASVGDRVTITCRASENIYSYLAWYQQKPGKAPKLLVYNARTLAEGVPSRFSGSGSGTDFTLTISSLQPEDFATYYCQHHYGTPWTFGGGTKVEIKR | 0.0508 µg/mL | no binding (tested: 16μg/ml) |  |  |  |
| 人源化抗TSLP单克隆抗体HA-Ⅰ (antibody, human IgG1, kappa, L234A L235A, V domains shown, Humanized from MA-Ⅰ; also called HA-1) VH: QVQLVQSGAEVKKPGASVKVSCKASGYTFTSYWMHWVRQAPGQGLEWIGLIDPSDSDTTYNQKFKGRATLTVDTSTSTAYMELSSLRSEDTAVYYCSRSLDGYFDHWGQGTLVTVSS VL: DIVMTQSPSSLSASVGDRVTITCRASENIYSYLAWYQQKPGKSPKLLVYNARTLAEGVPSRFSGSGSGTDFTLTISSLQPEDFATYYCQHHYGTPWTFGGGTKVEIKR | 0.0273 µg/mL | no binding (tested: 16μg/ml) |  |  |  |
| 人源化抗TSLP单克隆抗体HA-Ⅲ (antibody, human IgG1, kappa, L234A L235A, Humanized from MA-Ⅰ) heavy: not shown light: DIQMTQSPSSLSASVGDRVTITCRASENIYSYLAWYQQKPGKAPKLLVYNARTLAEGVPSRFSGSGSGTDFTLTISSLQPEDFATYYCQHHYGTPWTFGGGTKVEIKRTVAAPSVFIFPPSDEQLKSGTASVVCLLNNFYPREAKVQWKVDNALQSGNSQESVTEQDSKDSTYSLSSTLTLSKADYEKHKVYACEVTHQGLSSPVTKSFNRGEC | 0.0892 µg/mL | no binding (tested: 16μg/ml) |  |  |  |
| 人源化抗TSLP单克隆抗体HA-Ⅳ (antibody, human IgG1, kappa, L234A L235A, Humanized from MA-Ⅰ) heavy: not shown light: DIVMTQSPSSLSASVGDRVTITCRASENIYSYLAWYQQKPGKAPKLLVYNARTLAEGVPSRFSGSGSGTDFTLTISSLQPEDFATYYCQHHYGTPWTFGGGTKVEIKRTVAAPSVFIFPPSDEQLKSGTASVVCLLNNFYPREAKVQWKVDNALQSGNSQESVTEQDSKDSTYSLSSTLTLSKADYEKHKVYACEVTHQGLSSPVTKSFNRGEC | 0.0508 µg/mL | no binding (tested: 16μg/ml) |  |  |  |
| MA-Ⅲ鼠源抗TSLP单克隆抗体 (murine IgG1/Ck) (antibody, V domains shown) VH: QVQLQQPGAELVKPGASVKMSCKASGYTFTSYWMHWVKQRPGQGLEWIGVIDPSDSDTTYNQKFKGKATLTVDTSSSTVYMQLSSLTSEDSAVYYCTRSLDGYFDHWGQGTLVTVSA VL: DIVMTQSPASLSASVGETVTITCRASGNIHNYLAWYQQKQGKSPQLLVYNAKTLADGVPSRFSGSGSGTQYSLKINSLQPEDFGSYYCQHFWSTPWTFGGGTKLEIKA |  |  | 2.4 µg/mL | 0.00198 µg/mL |  |
| MA-Ⅳ鼠源抗TSLP单克隆抗体 (murine IgG1/Ck) (antibody, V domains shown) VH: QVKLEQSGAELVKPGASVKMSCKASGYTFTSYWMHWVKQRPGQGLEWIGVIDPSDSDTTYNQKFKGKATLTVDTSSSTAYMQLSSLTSEDSAVYYCTRSLDGYFDHWGQGTLVTVSA VL: DIVITQTPASLSASVGETVTITCRASGNIHNYLAWYQQKQGKSPQLLVYNTKTLADGVPSRFSGSGSGTQYSLKINSLQPEDFGSYYCQHFWSTPYTFGGGTKLEIKA |  |  | 11.8 µg/mL | 0.00557 µg/mL |  |
| 嵌合抗体CA-Ⅰ (antibody, human IgG1, kappa, L234A L235A, also called chimeric antibody CA-I) heavy: not shown light: DIVMTQSPASLSASVGETVTITCRASENIYSYLAWYQQKQGKSPQLLVYNARTLAEGVPSRFSGSGSGTQFSLKINSLQPEDFGSFYCQHHYGTPWTFGGGTKLEIKRTVAAPSVFIFPPSDEQLKSGTASVVCLLNNFYPREAKVQWKVDNALQSGNSQESVTEQDSKDSTYSLSSTLTLSKADYEKHKVYACEVTHQGLSSPVTKSFNRGEC |  |  |  |  | 0.0131 µg/mL |
| MA-Ⅰ鼠源抗TSLP单克隆抗体 (murine IgG1/Ck) (antibody, also called MA-I) heavy: QVQLEQSGAELVKPGASVKMSCKASGYTFTSYWMHWVKQRPGQGLEWIGLIDPSDSDTTYNQKFKGKATLTVDTSSSTAYMQLGSLTSEDSAVYYCSRSLDGYFDHWGQGTLVTVSAAKTTPPSVYPLAPGSAAQTNSMVTLGCLVKGYFPEPVTVTWNSGSLSSGVHTFPAVLQSDLYTLSSSVTVPSSTWPSETVTCNVAHPASSTKVDKKIVPRDCGCKPCICTVPEVSSVFIFPPKPKDVLTITLTPKVTCVVVDISKDDPEVQFSWFVDDVEVHTAQTQPREEQFNSTFRSVSELPIMHQDWLNGKEFKCRVNSAAFPAPIEKTISKTKGRPKAPQVYTIPPPKEQMAKDKVSLTCMITDFFPEDITVEWQWNGQPAENYKNTQPIMDTDGSYFVYSKLNVQKSNWEAGNTFTCSVLHEGLHNHHTEKSLSHSPG light: DIVMTQSPASLSASVGETVTITCRASENIYSYLAWYQQKQGKSPQLLVYNARTLAEGVPSRFSGSGSGTQFSLKINSLQPEDFGSFYCQHHYGTPWTFGGGTKLEIKADAAPTVSIFPPSSEQLTSGGASVVCFLNNFYPKDINVKWKIDGSERQNGVLNSWTDQDSKDSTYSMSSTLTLTKDEYERHNSYTCEATHKTSTSPIVKSFNRNEC |  |  | 1.52 µg/mL | 0.0011 µg/mL |  |
| MA-Ⅱ鼠源抗TSLP单克隆抗体 (murine IgG1/Ck) (antibody, V domains shown) VH: QVKLQQSGAELVKPGASVKMSCKASGYTFTTYWMHWVKQRPGQGLEWIGVIDPSDSYITYNQKFKGKATLTVDTSSSTAYMQLSSLTSEDSAVYYCTRSLDGYFDYWGQGTLVTVSA VL: DIVLTQSPASLSASVGETVTITCRASENIYSYLAWYQQKQGKSPQLLVYNAKTLAEGVPSRFSGSGSGTQFSLKINSLQPEDFGSYYCQHHYGTPWTFGGGTKLEIKA |  |  | 15.6 µg/mL | 0.00204 µg/mL |  |
